In publication PMC4643373:

Biological target: FMRP isoform 1 (FMRP ISO1) (human (title of cited purification …, UniProt Q06787 1-632))
Experiment: fluorescence spectroscopy

B1: NR2B 2AP mRNA (structured_RNA)
RNA: GGGUACGGGAGGGUAAGGCUGUGGGUCGCGUG
modifications: 2-aminopurine replacing A5
Kd: 370 nM
